In the supplement of paper PMC9170038:

System: K4 kissing-loop RNA reporter
Assay: apparent KD of K4 kissing-loop reporter; higher = weaker reporter binding
Conditions: Eterna round: R107
Experimental: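 RNA-MaP round R107: designed RNA switches with theophylline, tryptophan, arginine or FMN aptamers are transcribed on-chip within common flanks. They are titrated with a labelled K4 kissing-loop RNA reporter in RNA-MaP buffer (100 mM Tris pH 7.5, 80 mM KCl, 4 mM MgCl2), without ligand or with the indicated ligand. Median apparent KD per design.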

[1] = input ligand: theophylline 20 uM
[2] = input ligand: tryptophan 2.4 mM
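Note: bound reporter read as fluorescence of individual clusters on recovered sequencing chips by microscopy, with normalized cluster intensities fitted with a binding model.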

Sequence	apparent KD of K4 kissing-loop reporter (input ligand: FMN 200 uM)	apparent KD of K4 kissing-loop reporter (input ligand: arginine 13.2 mM)	apparent KD of K4 kissing-loop reporter (input ligand: none)	apparent KD of K4 kissing-loop reporter [1]	apparent KD of K4 kissing-loop reporter [2]
GGGAGUAGUGCGGCCGCCACUGUGAAAGAAGAAGAAUAUAGUGAUGUUAUAUAGGAAAUAAAGAAUAGGACCGGGCAUUAGAUUU [SSTRyptB.L]	282 nM	190 nM	221 nM	186 nM	161 nM
GGGAGUAGUGCGGCCGCCACUGUGAAAGAAGAAGAAUAUAGUGAUGUUAUAUAGGAAGGGAAGAAUAGGACCGGGCAUUAGAUUU [SSTRyptB.aA]	186 nM	355 nM	417 nM	190 nM	186 nM
GGGAGUAGUGCGGCCGCCACUGUGAAAGAAGAAGAAUAUAGUGAUGUUAUAUAGGAAUAAAAGAAUAGGACCGGGCAUUAGAUUU [SSTRyptB.R]	334 nM	231 nM	134 nM	113 nM	139 nM
GGGAUGUAGUGAUGUUAUAUUGGAUGUAGACGAGGACCGGUACGGCCGCCACUCGUGAUGGCUGCUAGCACGUUUCGAUGUUUGC [ExTryptoA.Cs]	410 nM	429 nM	424 nM	433 nM	330 nM
GGGCCAUGGUUUUUGCUAGUGAUGUUAGACCGAGGACCGGUACGGCCGCCACUCGGCAAGUCUUUCGUUAGAUCUCUGGGAAGUC [theeternabot_exclusion_KL_Trp_A_45]	810 nM	661 nM	1110 nM	1160 nM	578 nM
GGGCGCGGCGCGGCCGCCACUGGGCCUGGGCGCUCGCUGAGUGAUGUUCGCCGGCGGCUGGGUCGUAGGACCGGGUGCCGGCUGG [BDazzled - #3 SS Tryptophan B]	610 nM	490 nM	1270 nM	902 nM	452 nM
GGGCGUGGCGCGGCCGCCACUGCGCCUGGGUGCUCGCUGAGUGAUGUUCGUCGGCGGUUGGGUGGUAGGACCGGGUGCUGGCCGG [BDazzled - #12 SS Tryptophan B]	773 nM	318 nM	581 nM	595 nM	471 nM
GGGCGUGGCGCGGCCGCCACUGCGCCUGGGUGCUCGCUGAGUGAUGUUCGUCGGCGGUUGGGUGGUAGGACCGGGUGCUGGUCGG [BDazzled - #11 SS Tryptophan B]	640 nM	407 nM	629 nM	517 nM	563 nM
GGGUCUGCUCGAAGGAGCGCCCUGACAGGUUGCUGCCGUGGGCAGUGAUGUUGCUCAGUCCGGCAGGUAGGUCGCGAGCAGACCC	109 nM	118 nM	102 nM	89.8 nM	105 nM
GGGUGGUAGGCGGCCGCCACUCUGAGCACCCACUGAGUGAUGUUCGUGGCGUAAGCCUGUUCUUAGAGGACCGGGUUUGUUGUUC [Exclusion Tryptophan B GF 17]	207 nM	88 nM	178 nM	128 nM	144 nM
GGGUGUAGUGCGGCCGCCACUGUGAAAGUAGAAGAAUAUAGUGAUGUUAUAUAGGAUUAAAAGAAUAGGACCGGGCAUUAGACUU [#23 K4 Tryptophan B Same State]	214 nM	236 nM	284 nM	248 nM	182 nM
GGGUUCUCGUCGGCCGCCACUUCAUGUAUUUAGCAGGCUUCGCUCAGACUCAGUGAUGUUGGGUAAAGGACCGGGACACAUUCAA [theeternabot_exclusion_KL_Trp_B_50]	372 nM	245 nM	342 nM	304 nM	310 nM
GGUAGCAUGGCGGCCGCCACUGCGAAUGACGGCCACGUGAAAGUUGCCGCAGAGUGAUGUUCUGGCAGGACCGGGCCAUGCUACC	432 nM	372 nM	515 nM	477 nM	354 nM
GGUAGCAUGGCGGCCGCCACUUAGACCCUCCAGGAUGAGGGAAAAUAGCAGUGAUGUUGCUAGGUAAGGACCGGGCCAUGCUACC	230 nM	120 nM	162 nM	156 nM	119 nM
GGUAGCAUGGCGGCCGCCACUUCAAGUGGAGUGAUGUUCCGCGGCAUCGCGAAAGCGAUGCCUGGAAGGACCGGGCCAUGCUACC	1090 nM	858 nM	924 nM	797 nM	306 nM
GGUAGUGCUAGCGAUACCAGUCAUAUCGCUCUGGAGUGAUGUUCCGGAACGUGCGGAGAAGACCCUUGGCAGCGCUUGACUGGAA [Exclusion Theophylline B GF6]	758 nM	539 nM	574 nM	538 nM	736 nM

Sequence	apparent KD of K4 kissing-loop reporter (input ligand: FMN 200 uM)	apparent KD of K4 kissing-loop reporter (input ligand: arginine 13.2 mM)	apparent KD of K4 kissing-loop reporter (input ligand: none)	apparent KD of K4 kissing-loop reporter [1]	apparent KD of K4 kissing-loop reporter [2]
GGUAUCUAUACAGAUACCAGUCGUACAGCACCAUUACAGGUUAGUGAUGUUAACCUGUACGACCCUUGGCAGCUGUAUAAUAAUA [Theo B Ex t2a]	105 nM	85.4 nM	96.8 nM	121 nM	87.9 nM
GGUAUCUAUACAGAUACCAGUCGUACAGCUGCAUUACAGGUUAGUGAUGUUAACCUGUACGACCCUUGGCAGCUGUAUAGUAGUA [Theo B Ex t2b]	101 nM	72 nM	91.8 nM	100 nM	94 nM
GGUAUCUAUACAGAUACCAGUCGUAUAGGUCGAUUACAGGUUAGUGAUGUUAACCUGUACGACCCUUGGCAGCUGUAUAAUAAUA [Theo B Ex t2]	62 nM	60.3 nM	59.9 nM	51.7 nM	61.9 nM
GGUCGAGUGAUGUUCGAUGUAAUGCAUUCAGAGGAUAUAGGAUUGGCUAGAAGGCUGAAUCGUUCUUCGAGUGAUGUUCGAGGAU [Same State FMN A GF 7]	286 nM	141 nM	213 nM	244 nM	183 nM
GGUGCGCUGUUAGUGAUGUUAACCGAGGAUACCAGUUAGGCGUCUAACCCUUGGCAGCCUCUCUGGUCUCAUCAACGUUGUGCUA [theeternabot_exclusion_KL_Theo_A_37]	600 nM	431 nM	599 nM	641 nM	463 nM
GGUGCGGGCUCGGCCGCCACUCCCGCGGGUCGUAAGGUCCGCUACUGAGUGAUGUUCGGUUGGAGGAGGACCGGGAGCCCGUGCC [#2 Exclusion - Tryptophan B Attempt #19 (HarryS)]	115 nM	113 nM	106 nM	85.3 nM	106 nM
GGUUCCUCAGUGAUGUUGAGGUGACCUCGGCAGGAUAUAGGCAUUACUAGAAGGGCCAAAAGAACCCUGUCCAGCGACACAGGGU [Inatinar]	157 nM	304 nM	310 nM	259 nM	265 nM
GGUUGCAGCCCUGCAUCGUGGGUUUAGAGUAAGGAUAUUCGCCAAGGAAGAAGGUACUCUGCAUUGAGUGAUGUUCAAUAAGAUG [theeternabot_sameState_KL_FMN_A_30]	109 nM	176 nM	146 nM	166 nM	104 nM
GUACCUUGGAAACAAGGACAGAUAACCGAAGGAGCGCGUGAAAACGCAGGUAGGUCGCGGAAGCAGUGAUGUUGCAAAAGAGAGC [Same State Arginine A GF 17]	168 nM	188 nM	125 nM	228 nM	111 nM
GUACGCUUCCGAGUGAUGUUCGGUAAUAGUUAGGAUAUCGCUUUUGCGAGAAGGAACUGAAUGAGGAAACUCGUUCGAAGUGUAC [FMN A 17]	406 nM	336 nM	540 nM	396 nM	459 nM
GUAGCACUCGAUAGUGAUGUUAUCGAGGGCAAGGAUAUCACCUCAGUGAGAAGGUGUCCUUGAUAACUGCUACGGGAAUAUCCCA [Omei KL FMN A Exc D v8]	270 nM	90.9 nM	101 nM	106 nM	99.6 nM
GUAGCACUUGAUAGUGAUGUUAGCAAGGGCAAGGAUAUCAUCUCAAUGAGAAGGUGUCCUUGCUAACAGCUACGGGAAUAUCCCA [Omei KL FMN A Exc D v5]	173 nM	424 nM	577 nM	579 nM	630 nM
GUAGCUAAAGAAGGAUAUCGGAUCCAAAUCAAGCAGUGAUGUUGCGUGAAGAUCGGCUCCAUGCCGCGAGAAGGUCUUUUCUGUU [theeternabot_sameState_KL_FMN_B_18]	179 nM	305 nM	207 nM	284 nM	147 nM
GUAGCUUGGCUAGGAUAUUAGCGUAGGAGUGAUGUUCCGACUAGCGAAAGCUAGUCUCACGCUAGUUAAGAAGGAGCCAAGCUAC	263 nM	172 nM	175 nM	181 nM	174 nM
GUAGGAUGAGGAGGAGGAUGAAUUACUGAAGGAGCGCAUAUUUAUGCAGGUAGGUCGCGGUAAAGAAGUAUAGUGAUGUUAUAUA [SSArgA.I]	410 nM	343 nM	264 nM	479 nM	246 nM
GUAGUCGUACCUUCAGUGAUGUUGAAGGAUACCAGAUGUUACCACAUCCCUUGGCAGCCUUGGGAUAACAGUGAGUUGGAAUAUG [Soonusa]	161 nM	127 nM	159 nM	138 nM	160 nM
